Key:
[1] = system: T1, XssQ (Synechocystis sp. PCC 6803), ORF:81bb7109; experiment: EMSA; conditions: 30 min at room temperature, buffer, salt and pH not given (refers to Hirose 2010, Maeda 2014, Midorikawa 2009)
T1 sequence: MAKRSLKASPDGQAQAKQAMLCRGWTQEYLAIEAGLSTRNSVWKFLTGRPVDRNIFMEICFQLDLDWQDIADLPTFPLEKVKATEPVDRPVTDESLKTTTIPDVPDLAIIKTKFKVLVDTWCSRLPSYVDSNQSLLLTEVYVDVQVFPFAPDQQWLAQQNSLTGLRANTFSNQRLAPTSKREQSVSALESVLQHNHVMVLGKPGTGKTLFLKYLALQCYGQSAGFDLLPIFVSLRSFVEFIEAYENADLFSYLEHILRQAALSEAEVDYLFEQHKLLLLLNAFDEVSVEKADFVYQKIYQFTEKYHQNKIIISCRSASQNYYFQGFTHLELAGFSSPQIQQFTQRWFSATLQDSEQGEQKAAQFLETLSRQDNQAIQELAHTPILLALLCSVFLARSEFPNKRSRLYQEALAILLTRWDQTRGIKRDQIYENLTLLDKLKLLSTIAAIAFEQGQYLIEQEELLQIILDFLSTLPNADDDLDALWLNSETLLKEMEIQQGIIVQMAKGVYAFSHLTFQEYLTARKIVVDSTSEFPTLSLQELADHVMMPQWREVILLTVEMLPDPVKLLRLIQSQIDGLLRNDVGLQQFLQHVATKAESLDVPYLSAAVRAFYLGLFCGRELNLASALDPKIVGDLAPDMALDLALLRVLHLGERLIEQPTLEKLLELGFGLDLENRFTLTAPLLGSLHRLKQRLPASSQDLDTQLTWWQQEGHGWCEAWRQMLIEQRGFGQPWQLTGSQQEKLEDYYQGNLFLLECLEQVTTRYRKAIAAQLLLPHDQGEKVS

[2] = system: T1, XssQ (Synechocystis sp. PCC 6803), ORF:81bb7109; experiment: competition; conditions: EMSA, 30 min at room temperature; buffer, salt and pH not given (refers to Hirose 2010, Maeda 2014, Midorikawa 2009)

Sequence: ATCTTTAAAGCCCCAGTCCCGATCGCCAGCGGTTAAACAGGTAAAAAAACAGAAGCAGAAATCTAGTGAGCAGGGGAAACTCAAAACCAAGCCGGGGCGCTCAAAGTCAGGGTCAGGCAAAAGGTCTAAAGTTAGACGCAAAGTTGTACATAGGGCAGGCACGAAATCAGACAGCGATCCATCAAGCTAAGAACAGGTTGCAATTGCCCATCTCACGATCGCCGTCACGCCCCCATGAACACTTCTTTCCT (double strand) [xssE upstream probe / native competitor]
- binding [1]: binds
- binding [2]: binds
